Legend:
[1] = target: Sau-TBD, hybrid DNA polymerase prepared by inserting a thioredoxin binding domain (TBD) of bacteriophage T7 DNA polymerase into DNA polymerase I (Sau) of S. aureus; test: cell-based or functional assay
[2] = target: DNA polymerase I (Sau) of Staphylococcus aureus (Staphylococcus aureus); test: cell-based or functional assay

## TrxA (thioredoxin of E. coli) (from UniProt P0AA25 2-109)
[1]
  Average amplification length of primers (nt) [1/(1 - PI)], in the presence of TrxA: 74.1 nt
  Micro continuous synthetic capacities (PI), in the presence of TrxA: 0.987
  Polymerization activities (units/mg protein), +TrxA (units/mg protein): 2860
  fold improvement of average amplification length of the primer on addition of TrxA: > 20 fold
  fold improvement of polymerization activity on addition of TrxA: > 2 fold
[2]
  Polymerization activities (units/mg protein), +TrxA (units/mg protein): 3100

From patent US20180298357A1
